Target: the molecule itself
Test: cryo-EM structure

B1: CT–PT–BCCP fragment of MtPC (degradation product) (domain or fragment)
chain: ADRGTKILNFLADVTVNNPYGSRPSTIYPDDKLPDLDLRAAPPAGSKQRLVKLGPEGFARWLRESAAVGVTDTTFRDAHQSLLATRVRTSGLSRVAPYLARTMPQLLSVECWGGATYDVALRFLKEDPWERLATLRAAMPNICLQMLLRGRNTVGYTPYPEIVTSAFVQEATATGIDIFRIFDALNNIESMRPAIDAVRETGSAIAEVAMCYTGDLTDPGEQLYTLDYYLKLAEQIVDAGAHVLAIKDMAGLLRPPAAQRLVSALRSRFDLPVHLHTHDTPGGQLASYVAAWHAGADAVDGAAAPLAGTTSQPALSSIVAAAAHTEYDTGLSLSAVCALEPYWEALRKVYAPFESGLPGPTGRVYHHEIPGGQLSNLRQQAIALGLGDRFEEIEEAYAGADRVLGRLVKVTPTSKVVGDLALALVGAGVSADEFASDPARFGIPESVLGFLRGELGDPPGGWPEPLRTAALAGRGAARPTAQLAADDEIALSSVGAKRQATLNRLLFPSPTKEFNEHREAYGDTSQLSANQFFYGLRQGEEHRVKLERGVELLIGLEAISEPDERGMRTVMCILNGQLRPVLVRDRSIASAVPAAEKADRGNPGHIAAPFAGVVTVGVCVGERVGAGQTIATIEAMKMEAPITAPVAGTVERVAVSDTAQVEGGDLLVVVS
  stoichiometry N: 2
